From US7566555B2, “Method of expressing proteins comprising non-naturally-occurring amino acids” (Riken, priority 2002, dated 2009)

Experiments:
[1] = tested on: CHO cells; test: Effect on growth of CHO cells
Description: Next, 3-iodo-L-tyrosine was added to the medium to a final concentration of 0.3 mM (L-tyrosine was present at twice that concentration (FIG. 5B)).

[2] = tested on: amber mutation in ras(Am); test: Amber suppression of ras(Am) in CHO cells, western blotting with anti-FLAG antibody; format: cell-based, Chinese hamster; details: for suppression efficiency (comparison): Ras and EGFR amber mutants, tetracycline 1 μg/mL
Description: Transfection was carried out using 0.5 to 2 μg of DNA for each plasmid per 35 mm plate in accordance with the Lipofect AMINE 2000 (Gibco BRL) method. Opti-MEM 1 (Gibco BRL) was used for the medium. Cell extracts were prepared 24 hours after transfection and applied to SDS-PAGE followed by western blotting using anti-FLAG2 antibody (Sigma) and the ECL+ Immunodetection System (Amersham Pharmacia Biotech). Band intensity was measured using the LAS-1000 plus image analyzer (Fuji Film).
In order to analyze amber suppression, the tyrosine codon at position 32 in a synthetic ras gene truncated from the wild type c-Ha-Ras was mutated to an amber codon. In order to detect expression, a FLAG peptide tag was added to the C-terminals of the ras genes, ras(WT) and its amber mutant ras(Am), and to the C-terminal of E. coli TyrRS.
These ras gene were introduced into CHO cells, and their products were detected by western blotting of cell extracts using anti-FLAG antibody (FIG. 4A).

[3] = tested on: TyrRS; test: Aminoacylation reaction of TyrRS variants, inorganic phosphate detected with Biomol Green; format: biochemical, E. coli; set-up: key: +++: the activity detected with an enzyme concentration of 0.50 μM; ++: the activity detected with an enzyme concentration of 0.25 μM; the activity detected with an enzyme concentration of 0.25 μM, although the activity is lower than that represented by “++”; −: no activity detected with an enzyme concentration of 0.25 μM
Excerpt: More preferably, a mutant TyrRS can be used in which the location corresponding to tyrosine (Y) at position 37 is substituted with valine (V), leucine (L), isoleucine (I) or alanine (A), and the location corresponding to glutamine (Q) at position 195 is substituted with alanine (A), cysteine (C), serine (S) or asparagine (N).

Molecule: N[C@@H](Cc1ccc(O)c(I)c1)C(=O)O [3-iodo-L-tyrosine, reference compound]
- effect on cell reproduction ([1]; 0.3 mM in the medium): hardly any effect on cell reproduction

B1: TetBst1: tet02 sequence 10 bases upstream from the suppressor tRNA gene, SEQ. ID NO. 31 (nucleic acid)
DNA: TCTCCCTATCAGTGATAGAGATCCGTACACGTCGGAGGGGTAGCGAAGTGGCTAAACGCGGCGGACTCTAAATCCGCTCCCTTTGGGTTCGGCGGTTCGAATCCGTCCCCCTCCAGACAAGTGCGGTTTTTTTCTCCAGCTCCCG
modifications: a sequence of one of the induced expression systems prepared in Example 1 (TetBst1)
- suppression efficiency (comparison) [2]: higher suppression efficiency than TetBst0

B2: Wild Type (Y37, Q195): TyrRS (wild type) of E. coli, SEQ. ID NO. 29 (protein, listed as Escherichia coli)
chain: MASSNLIKQLQERGLVAQVTDEEALAERLAQGPIALYCGFDPTADSLHLGHLVPLLCLKRFQQAGHKPVALVGGATGLIGDPSFKAAERKLNTEETVQEWVDKIRKQVAPFLDFDCGENSAIAANNYDWFGNMNVLTFLRDIGKHFSVNQMINKEAVKQRLNREDQGISFTEFSYNLLQGYDFACLNKQYGVVLQIGGSDQWGNITSGIDLTRRLHQNQVFGLTVPLITKADGTKFGKTEGGAVWLDPKKTSPYKFYQFWINTADADVYRFLKFFTFMSIEEINALEEEDKNSGKAPRAQYVLAEQVTRLVHGEEGLQAAKRITECLFSGSLSALSEADFEQLAQDGVPMVEMEKGADLMQALVDSELQPSRGQARKTIASNAITINGEKQSDPEYFFKEEDRLFGRFTLLRRGKKNYCLICWK
- effect on growth rate of CHO cells ([1]; expression from a transiently introduced plasmid): hardly affect the growth rate
- Activity of TyrRS variants with 3-iodo-L-tyrosine ([3]; amino acid: 3-iodo-L-tyrosine): −
- Activity of TyrRS variants with Tyrosine ([3]; amino acid: Tyrosine): +++

B3: TetBst0×1: tet02 sequence immediately before the suppressor tRNA gene, SEQ. ID NO. 30, single copy (nucleic acid)
DNA: TCTCCCTATCAGTGATAGAGATCGGAGGGGTAGCGAAGTGGCTAAACGCGGCGGACTCTAAATCCGCTCCCTTTGGGTTCGGCGGTTCGAATCCGTCCCCCTCCAGACAAGTGCGGTTTTTTTCTCCAGCTCCCG
modifications: a sequence of one of the induced expression systems prepared in Example 2 (TetBst0)
notes: ID NO; 30, single copy
- suppression when tetracycline is not added ([2]; no tetracycline): nearly complete absence of suppression

B4: TetBst2: tet02 sequence 20 bases upstream from the suppressor tRNA gene, SEQ. ID NO. 32 (nucleic acid)
DNA: TCTCCCTATCAGTGATAGAGATCCGCCGACACACGTACACGTCGGAGGGGTAGCGAAGTGGCTAAACGCGGCGGACTCTAAATCCGCTCCCTTTGGGTTCGGCGGTTCGAATCCGTCCCCCTCCAGACAAGTGCGGTTTTTTTCTCCAGCTCCCG
modifications: a sequence of one of the induced expression systems prepared in Example 2 (TetBst2)
- suppression efficiency (comparison) [2]: lower than that of TetBst1
